Data on seven substances can be found in article PMC11813886.

For test [1], the target named is FHR-1_(1-3)::FHR-B4-5 hybrid protein (human | mouse). The test can be described thus: AUC; sedimentation velocity, 48000 rpm, protein in PBS pH 7; c(s) distributions with SEDFIT; dimer to monomers.
For test [2], the target named is FHR-B1-3::FHR-1_(4-5) hybrid protein (mouse | human). Described as above.
A further test deals with FHR-B_(Del.1) (mouse). Described as above.
A further test concerns the target FHR-B_(Dup.1-3) (mouse). Described as above.
In test [3] the target is FHR-B_(T161A,I166V) (mouse). The description is as above.
In the next test the target is FHR-B_(Y162H) (mouse). The test is described as above.
Test [4] addresses recombinant form of the native mouse FHR-B protein (rFHR-B) (mouse). Described as above.
For test [5] the target is unchanged. The test can be described thus: AUC; sedimentation velocity after exposure to pH 2.5 or pH 10.5 and dialysis back to physiological conditions.

The substance FHR-1_(1-3)::FHR-B4-5 hybrid protein showed a stoichiometry N in test [1] of 2.

In turn, FHR-B1-3::FHR-1_(4-5) hybrid protein showed a stoichiometry N in test [2] of 2. FHR-B_(Del.1) (domain or fragment) returned a stoichiometry N with FHR-B_(Del.1) (mouse) of 2. Turning to FHR-B_(Dup.1-3), the stoichiometry N with FHR-B_(Dup.1-3) (mouse) turned out to be 2.

Turning to FHR-B_(T161A,I166V) (natural protein), the stoichiometry N in test [3] is 2. On to FHR-B_(Y162H) (natural protein), for which the stoichiometry N with FHR-B_(Y162H) (mouse) was found to be 2. Consider “recombinant form of the native mouse FHR-B protein (rFHR-B) (natural protein)”, for which the stoichiometry N in test [4] and in test [5] was 2 in each case.

As a reminder, the stoichiometry N is the number of molecules, sites or subunits per partner or assembly.
